Where a chain is given by its changes, count along the chain named. One block for each molecule: values may come before it.
How the values were obtained:
[1] = biological target: IL-1RI on HEK-Blue IL-1β responsive cells (UniProt P14778)
[2] = biological target: T1, IL-1RI on HEK-Blue IL-1β responsive cells (UniProt P14778 18-569); test: cell-based or functional assay
T1 sequence (looked up): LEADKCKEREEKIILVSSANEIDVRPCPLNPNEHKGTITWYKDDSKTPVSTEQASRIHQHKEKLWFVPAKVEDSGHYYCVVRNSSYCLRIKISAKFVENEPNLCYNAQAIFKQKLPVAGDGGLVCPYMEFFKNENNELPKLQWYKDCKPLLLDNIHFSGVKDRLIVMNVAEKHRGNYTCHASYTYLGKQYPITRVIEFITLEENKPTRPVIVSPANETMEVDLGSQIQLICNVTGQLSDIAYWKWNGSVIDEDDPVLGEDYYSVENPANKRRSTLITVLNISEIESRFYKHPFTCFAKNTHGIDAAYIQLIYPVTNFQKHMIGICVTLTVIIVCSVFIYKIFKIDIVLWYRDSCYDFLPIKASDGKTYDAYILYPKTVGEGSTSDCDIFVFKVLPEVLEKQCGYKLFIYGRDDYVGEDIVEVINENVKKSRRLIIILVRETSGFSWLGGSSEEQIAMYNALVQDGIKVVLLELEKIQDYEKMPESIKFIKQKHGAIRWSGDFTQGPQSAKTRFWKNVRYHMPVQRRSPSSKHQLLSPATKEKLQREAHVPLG

[3] = biological target: T1, IL-1RI on HEK-Blue IL-1β responsive …; test: cell-based or functional assay; remark: listed apart in the source
[4] = biological target: T2, soluble recombinant human IL-1RI (corresponding to the extracellular domain of IL-1RI) (human, UniProt P14778 18-336); test: SPR (Reichert SR7000DC), soluble recombinant human IL-1RI, PBS with 0.005% Tween 20
T2 construct: extracellular domain
T2 sequence (looked up): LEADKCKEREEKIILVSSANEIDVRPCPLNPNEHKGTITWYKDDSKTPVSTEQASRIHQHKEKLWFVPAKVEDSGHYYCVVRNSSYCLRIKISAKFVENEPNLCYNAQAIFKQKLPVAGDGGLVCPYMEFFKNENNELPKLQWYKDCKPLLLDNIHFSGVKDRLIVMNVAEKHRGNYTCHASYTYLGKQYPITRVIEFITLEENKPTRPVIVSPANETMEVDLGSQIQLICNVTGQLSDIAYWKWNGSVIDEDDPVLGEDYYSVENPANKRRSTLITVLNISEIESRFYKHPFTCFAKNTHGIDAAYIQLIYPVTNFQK
Procedure: The binding properties of proteins for soluble recombinant human IL-1RI (corresponding to the extracellular domain of IL-1RI) were evaluated using surface plasmon resonance with a Reichert SR7000DC Dual Channel SPR system. Binding was evaluated in phosphate buffered saline with 0.005% Tween 20. […] Thus, the P01 protein bound to IL-1RI with a greater affinity than did IL-1β under similar conditions.

[5] = biological target: T1, IL-1RI on HEK-Blue IL-1β responsive …; test: cell-based or functional assay; remark: listed apart in the source

B1: P01 (designed binder)
chain: APVRSLAFRIWDVNQKTFYLRNNQLVAGYLQGPNVNLEEKIDVSFVQGEESNDKIPVALGIHGGKMCLSCVKSGDETRLQLEAVDPKNYPKKKMDKRFAFIRSDSGPTTSFESAACPGWFLCTAMEADQPVSLTNMPDEGVMVTKFYMQFVSS
notes: Expressed in E. coli; In the cell assay, supernatants or lysates containing P01 were used; also called chimeric cytokine domain P01
- OD650 (SEAP reporter of HEK-Blue IL-1β cells, agonism test, protein alone; amount of protein not given) [2]: 0.061 OD650
- IC50 (read off the curve); HEK-Blue IL-1β SEAP reporter, IL-1β 0.1 ng/ml, lysate with untagged P01, concentration estimated [3]: ~1 ng/mL
- Kd [4]: 0.47 nM
- koff [4]: 2.32e-05 s⁻¹
- kon [4]: 49300 M⁻¹ s⁻¹

B2: P02 (designed binder)
chain: APVRSLAFRIWDVNQKTFYLRNNQLVAGYLQGPNVNLEEKIDVSFVQGEESNDKIPVALGIHGGKMCLSCVKSGDETRLQLEAVDPKNYPKKKMEKRFVFNKIEINNKLSFESAACPGWFLCTAMEADQPVSLTNMPDEGVMVTKFYMQFVSS
notes: Expressed in E. coli; also called chimeric cytokine domain P02
- IC50 (read off the curve); HEK-Blue IL-1β SEAP reporter, IL-1β 0.1 ng/ml, lysate with untagged P02, concentration estimated [3]: ~1 ng/mL
- Kd [4]: 0.636 nM
- koff [4]: 2.16e-05 s⁻¹
- kon [4]: 33900 M⁻¹ s⁻¹

B3: P04 (designed binder)
chain: APVRSLAFRIWDVNQKTFYLRNNQLVAGYLQGPNVNLEEKFSMSFVQGEESNDKIPVALGLKEKNLYLSCVLKDDKPTLQLESVDPKNYPKKKMEKRFVFNKIEINNKLEFESAACPGWFLCTAMEADQPVSLTNMPDEGVMVTKFTMQFVSS
notes: Expressed in E. coli; also called chimeric cytokine domain P04
- IC50 (read off the curve); HEK-Blue IL-1β SEAP reporter, IL-1β 0.1 ng/ml, lysate with untagged P04, concentration estimated [3]: ~6 ng/mL
- Kd [4]: 1.71 nM

B4: P05 (designed binder)
chain: B3 chain with A7N, F8C, A115Q, C116F, G118N, T147Y
notes: Expressed in E. coli; also called EBI-005; chimeric cytokine domain P05
- IC50, antagonism of IL-1β activity in the HEK-Blue IL-1β SEAP reporter assay [5]: < 5 ng/mL
- Kd [4]: 0.012 nM
- koff [4]: 4.15e-05 s⁻¹
- kon [4]: 3.47e+06 M⁻¹ s⁻¹

B6: P03 (designed binder)
chain: B3 chain with N101I, K102R, I103S, E104D, I105S, N106G, N107P, K108T, L109T, E110S
notes: Expressed in E. coli; also called chimeric cytokine domain P03
- IC50 (read off the curve); HEK-Blue IL-1β SEAP reporter, IL-1β 0.1 ng/ml, lysate with untagged P03, concentration estimated [3]: ~2 ng/mL
- Kd [4]: 0.29 nM
- koff [4]: 0.0012 s⁻¹
- kon [4]: 4.1e+06 M⁻¹ s⁻¹

Now from value to molecule:

- OD650 (SEAP reporter of HEK-Blue IL-1β cells, agonism test, negative control; amount of protein not given) [1]: 0.06 OD650
Molecule: GUS (enzyme)

- OD650 (SEAP reporter of HEK-Blue IL-1β cells, agonism test, protein alone; amount of protein not given) [2]: 0.222 OD650
- Kd [4]: 92.6 nM
- koff [4]: 0.00146 s⁻¹
- kon [4]: 15800 M⁻¹ s⁻¹
B5: P07 (designed binder)
chain: B3 chain with A7N, F8C, A115Q, C116F, G118N, V141Q, M142D, V143I, K145D
notes: Expressed in E. coli

- OD650 (SEAP reporter of HEK-Blue IL-1β cells, agonism test, protein alone; amount of protein not given) [2]: 1.78 OD650
- Kd [4]: 0.41 nM
- koff [4]: 0.0017 s⁻¹
- kon [4]: 4.8e+06 M⁻¹ s⁻¹
B7: P06 (designed binder)
chain: APVRSLNCTLWDVNQKTFYLRNNQLVAGYLQGPNVEQQVVFSMSFVQGEESNDKIPVALGLKEKNLYLSCVLKDDKPTLQLESVDPKNYPKKKMEKRFVFNKIEINNKLEFESAQFPNWYISTSMEADQPVFLGGTKGGQDITDFTMQFVSS
notes: Expressed in E. coli
